According to patent US20230176070A1:

Assays:
[1] = biological target: GST fusion PDZ mutant protein (R46E:K48D) (mammalian (so in the source)) (UniProt P57105); test: indirect ELISA, PDZ R46E:K48D coated
[2] = biological target: T1, PDZ domain of mitochondrial outer membrane protein 25 (mammalian (so in the source)) (UniProt P57105); test: indirect ELISA, wild type PDZ coated
T1 sequence (looked up): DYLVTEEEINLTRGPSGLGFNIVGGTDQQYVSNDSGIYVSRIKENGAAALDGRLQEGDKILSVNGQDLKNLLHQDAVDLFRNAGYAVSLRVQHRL

[3] = biological target: GST fusion PDZ mutant protein (R46E:K48D) (mammalian (so in the source)) (UniProt P57105); test: ELISA, wild type PDZ against PDZ R46E:K48D

B1: P2 (VHH)
VHH: DVQLVESGGGLVQAGGSLRLSCAASGHTFSSYTMGWFHQAPGKEREFVAEISGTGGNTGYADSVKGRFTISRDNAKNTVYLQMNSLKPEDTAVYYCAAVIGSPTDSSDYRSSLDYDYWGQGTQVTVSE
Mutant ELISA affinity (LogIC50 (oD450nm)) [1]: 4.35
WT ELISA affinity (LogIC50 (oD450nm)) [2]: 5.44
Affinity fold change [3]: 12.1 fold

B2: P3 (VHH)
VHH: DVQLVESGGGLVQAGGSLRLSCAASGRTFSSYTMGWFHQAPGKEREFVAEIGGTGGNTGYADSVKGRFTISRDNAKNTVYLQMNSLKPEDTAVYYCAAVIGSPTDSSDYRSSLDYDYWGQGTQVTVSE
Mutant ELISA affinity (LogIC50 (oD450nm)) [1]: 4.78
WT ELISA affinity (LogIC50 (oD450nm)) [2]: 5.26
Affinity fold change [3]: 3.04 fold

B3: P4 (VHH)
VHH: HVQLVESGGGLVQAGGSLRLSCAAAGRTSSDYAMGWFRQAPGKEREFVSAINWSGISTYYADSVKGRFTISRDNAKNTVHLQMNSLKPEDTAVYYCAAEKLESLRNWHDPLMYDYWGQGTQVTVSE
Mutant ELISA affinity (LogIC50 (oD450nm)) [1]: 4.58
WT ELISA affinity (LogIC50 (oD450nm)) [2]: 4.42
Affinity fold change [3]: 1 fold

B4: P5 (VHH)
VHH: DVQLVESGGGLVQAGDSLRLSCAASGITFRWYTMAWFRQAPGKERDFVATINWSGSDTNYADSVKGRFTISRDNAKNTVTLQMNSLQPEDTAVYYCAGVPGTSLSGETDPRDYDYWGQGTQVTVSE
Mutant ELISA affinity (LogIC50 (oD450nm)) [1]: 0
WT ELISA affinity (LogIC50 (oD450nm)) [2]: 4.7
Affinity fold change [3]: 50600 fold

B5: P6 (VHH)
VHH: HVQLVESGGGLVQAGGSLRLSCAASGRTFSRYTMGWFHQAPGKEREFVAEISGTGGNTGYADSVKGRFTMSRDNAKNTVYLQMNSLKPEDTGVYYCAAVIGSPTDSSDYRSSLDYDYWGQGTQVTVSE
Mutant ELISA affinity (LogIC50 (oD450nm)) [1]: 4.73
WT ELISA affinity (LogIC50 (oD450nm)) [2]: 5.25
Affinity fold change [3]: 3.32 fold

B6: P9 (VHH)
VHH: DVQLVESGGGLVQAGGSLRLSCVASVASGRTFGWYDMGWFRQAPGKEREFVAAISWSGGSTYYADSVKGRSTISRDNAKNTVYLQMNSLKPEDTAVYYCAARGGGTSVDSDYDVGEFEYDYWGQGTQVTVSE
Mutant ELISA affinity (LogIC50 (oD450nm)) [1]: 2.61
WT ELISA affinity (LogIC50 (oD450nm)) [2]: 4.88
Affinity fold change [3]: 185 fold

B7: NbPDZ P10 (VHH)
VHH: DVQLVESGGGLVQAGGSLRLSCTASGRTFSTYTMAWFRQAPGKEREFVAAITWSGTYYADSVKGRFTISRDNAKNTMYLQMNSLKPEDTAVYICAAVIGSTVDSYSPSDPLEYDYWGQGTQVTVSE
Mutant ELISA affinity (LogIC50 (oD450nm)) [1]: 3.83
Affinity fold change [3]: 23.5 fold

B8: P11 (VHH)
VHH: DVQLVESGGGLVQAGGSLRLSCVASGRTFSTYTMGWFRQAPGKEREFVAHIGWSGSSTYYADSVKGRFTISRDNAKNTMYLQMNSLKPEDTAVYYCAVAIGSPVDSYRHSDPLEYDYWGQGTQVTVSE
Mutant ELISA affinity (LogIC50 (oD450nm)) [1]: 0
WT ELISA affinity (LogIC50 (oD450nm)) [2]: 4.07
Affinity fold change [3]: 11700 fold

B9: P13 (VHH)
VHH: QVQLVESGGGLVQAGGSLRLSCAASGRTFSTYTMGWFRQAPGKEREFVAAVTWSETLYSDSVKGRFTISRDNAKNTVYLQMNSLKPEDTAVYYCAAVQGSPVDTIVVLTTSEEYDYWGQGTQVTVSS
Mutant ELISA affinity (LogIC50 (oD450nm)) [1]: 0.0071
WT ELISA affinity (LogIC50 (oD450nm)) [2]: 4.45
Affinity fold change [3]: 28000 fold

B10: P14 (VHH)
VHH: QVQLVESGGGLVQAGDSLRLSCTASGRTFSTYTMAWFRQAPGKEREFVAAISWSGTYYADSVKGRFTISRDNAKNTVYLQMNSLKPEDTAVYYCAAVIGSTVDTYSPSDPLEYDYWGQGTQVTVSS
Mutant ELISA affinity (LogIC50 (oD450nm)) [1]: 3.74
WT ELISA affinity (LogIC50 (oD450nm)) [2]: 5.15
Affinity fold change [3]: 25.7 fold

B11: P15 (VHH)
VHH: QVQLVESGGGLVQAGGSLRLSCVASGRPFSSLDMGWFRQRPGKERDVVATINWTGDSTYYLDSVKGRFTISRDNAKNTVFLQMNSLKPEDTAVYYCAARGGGSSVDSEYDVGEFEYDYWGQGTQVTVSS
Mutant ELISA affinity (LogIC50 (oD450nm)) [1]: 1.66
WT ELISA affinity (LogIC50 (oD450nm)) [2]: 4.97
Affinity fold change [3]: 2060 fold
